# Results: US20150307599A1 (GARVAN INSTITUTE OF MEDICAL RESEARCH, published 2015)
# Positions count from the first letter of the chain named. The star is where a group is joined. Biotin = O=C1N[C@H]2[C@H](CS[C@H]2CCCCC(=O)*)N1; Ahx = NCCCCCC(=O)O
# T1: biotin-hPP (human, N-terminal Biotin-Ahx-; C-terminal amide (-NH2))
# T1 peptide: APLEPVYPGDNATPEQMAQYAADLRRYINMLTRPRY
# T2: biotin-NPY20-36 (SMILES …)
# T2 construct: Captured on neutravidin or streptavidin plates
# T2 peptide: {Biotin-Ahx}-YYSALRHYINLITRQRY-NH2
# B1: scFv-3 (human) (scFv)
# scFv: EVQLLESGGGLVQPGGSLRLSCAASGFRFSDEDMGWVRQAPGKGLEWVSSIYGPSGSTYYADSVKGRFTISRDNSKNTLYLQMNSLRAEDTAVYYCAKDDVGTGTFDYWGQGTLVTVSSGGGGSGGGGSGGGGSTDIQMTQSPSSLSASVGDRVTITCRASQYIYYALNWYQQKPGKAPKLLIYDYSALQSGVPSRFSGSGSGTDFTLTISSLQPEDFATYYCQQSYYHPATFGQGTKVEIKR
# notes: Human scFv from the Garvan-2 phage library; Whole entry used as named
# B2: scFv-6 (human) (scFv)
# scFv: EVQLLESGGGLVQPGGSLRLSCAASGFRFSAEDMGWVRQAPGKGLEWVSSIASAGASTYYADSVKGRFTISRDNSKNTLYLQMNSLRAEDTAVYYCAKHMYSYAIFDYWGQGTLVTVSSGGGGSGGGGSGGGGSTDIQMTQSPSSLSASVGDRVTITCRASQDIADALNWYQQKPGKAPKLLIYAASSLQSGVPSKFSGSGSGTDFTLTISSLQPEDFATYYCQQGYVHPPTFGQGTKVEIKR
# notes: as for B1
# B3: mouse 5E12-B7 scFv PSE2 (scFv, V domains shown, not shown: small tags and cut ends)
# VH: QVQLQHPGTEVVKPGASVKLSCKASGYTFTNYWMHWVKQRPGQGLEWIGNIDPSNGGTNYNEKFKSKATLTVDKSSSTAYMQLSSLTSEDSAVYYCASFAYWGQGTLVTVSS
# VL: DIQMTQSPASLSASVGETVTITCRASGNIHNYLAWYQQKQGKSPQLLVYNAKTLADGVPSRFSGSGSGTQYSLKISSLRPEDFGSYYCQHFWSPPFTFGSGTKLEIK
# notes: also called 5E12 (mouse); mouse 5E12 PSE2
# B4: h5E12 IGHV1-46/DPK9 scFv (humanized) (scFv)
# scFv: QVQLVQSGAEVKKPGASVKVSCKASGYTFTNYWMHWVRQAPGQGLEWMGNIDPSNGGTNYNEKFKSRVTMTRDTSTSTVYMELSSLRSEDTAVYYCASFAYWGQGTLVTVSSGGGGSGGGGSGGGGSTDIQMTQSPSSLSASVGDRVTITCRASGNIHNYLAWYQQKPGKAPKLLIYNAKTLADGVPSRFSGSGSGTDFTLTISSLQPEDFATYYCQHFWSPPFTFGQGTKVEIKR
# notes: Humanized 5E12 scFv
# B5: h5E12 IGHV1-69/DPK9 scFv (humanized) (scFv)
# scFv: B4 scFv with A16S, M70I, R72A, T74E, V79A
# notes: Humanized 5E12 scFv
# B6: scFv-7 (human) (scFv)
# scFv: EVQLLESGGGLVQPGGSLRLSCAASGFRFDYEDMGWVRQAPGKGLEWVSAIASDGDSTYYADSVKGRFTISRDNSKNTLYLQMNSLRAEDTAVYYCAKIYYDGAYRVFDYWGQGTLVTVSSGGGGSGGGGSGGGGSTDIQMTQSPSSLSASVGDRVTITCRASQSISSYLNWYQQKPGKAPKLLIYSASYLQSGVPSRFSGSGSGTDFTLTISSLQPEDFATYYCQQYSMLPTTFGQGTKVEIKR
# notes: as for B1
# Target: biotin-hPYY (human, N-terminal Biotin-Ahx-; C-terminal amide (-NH2))
# Sequence (peptide, as listed by the source): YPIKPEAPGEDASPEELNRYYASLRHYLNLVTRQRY
# Test: BLI (ForteBio Blitz), biotinylated peptide on streptavidin sensor, scFv in solution
# Experimental: (§1) Affinity of the purified scFv for biotin-NPY, biotin-hPYY and biotin-hPP was determined using a Blitz system (ForteBio). Streptavidin Biosensors were blocked for 1 hr with 1% BSA in PBS. Biosensors were then coupled for 120 seconds with 1 μM solutions of biotinylated peptide followed by a 30 second baseline measurement. The sensors were then transferred to varying dilutions of purified scFv and association was measured for 300 seconds. The sensors were then transferred to PBS and dissociation was measured for 900 seconds. Global fits were determined for association and dissociation curves at two concentrations of each scFv against each of the peptides. All curves were referenced with peptide-only and scFv-only runs.
row,Binder,Kd [nM]
1,B1,1910
2,B2,3240
3,B3,32.9
4,B4,1040
5,B5,140

# Target: biotin-NPY (N-terminal Biotin-Ahx-; C-terminal amide (-NH2))
# Test: as above
# Experimental: as §1
row,Binder,Kd [nM]
1,B2,177
2,B3,22.1
3,B6,9250
4,B4,905
5,B5,142

# Target: T1, biotin-hPP
# Test: as above
# Experimental: as §1
row,Binder,max signal (nm)
1,B1,< 0.2
2,B2,< 0.2
3,B6,< 0.2
4,B4,< 0.2
5,B5,< 0.2

# Target: T2, biotin-NPY20-36
# Test: soluble scFv ELISA, biotin-NPY20-36 on streptavidin
# Experimental: (§2) In order to analyze antigen binding, ELISA plates were coated with 1 ug/mL biotin-NPY₂₀₋₃₆ on 10 ug/mL streptavidin […] streptavidin only.
# (§3) Plates were then blocked with 5% skim milk/PB ST and incubated with supernatant from the IPTG-induced cultures. Binding of soluble scFv to wells was detected with peroxidase conjugated anti-cMyc.
row,Binder,binding result
1,B1,binds
2,B2,binds
3,B6,binds

# Target: T2, biotin-NPY20-36
# Test: phage ELISA, scFv on phage, anti-M13 detection
# Experimental: Overnight cultures were grown from clones transformed with the humanized 5E12-B7 scFv genes pHEN1 vector. Phages were then produced through overnight incubation after rescue with KM13 helper phage. In order to analyze antigen binding, ELISA plates were coated with 500 ng/mL biotin-NPY₂₀₋₃₆ on 10 ug/mL neutravidin; 10 ug/mL neutravidin only; 10 ug/mL Protein A or 10 ug/mL Protein L
# ELISA plates were blocked with 5% skim milk/PB ST then incubated with phage culture supernatant which had also been blocked with 5% skim milk/1% Tween (final concentration). Binding of scFv-phage to wells was detected with Peroxidase conjugated anti-M13 secondary antibody.
row,Binder,binding result
1,B4,binds
2,B5,binds

# Target: T2, biotin-NPY20-36
# Test: soluble scFv ELISA, biotin-NPY20-36 on streptavidin, anti-cMyc detection
# Experimental: as §2, §3
row,Binder,binding result
1,B3,binds
